Measured values reported in the supplement of paper PMC12042874.
± gives the uncertainty stated by the source.

Experiment: amyloid nucleation score (Sup35N fusion, yeast selection) (log enrichment); library NNK1; higher = more nucleation; inactive = no reads after selection
Summary of the method: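 Nucleation score is defined as the DiMSum log enrichment of output over input reads, with centring on the mode score of non-aggregating sequences. A minimum of 100 input reads was required for each sequence. Reads came from Illumina sequencing of plasmid inserts from psi-negative yeast expressing Sup35N fused to peptides of 20 random codons, induced with 100 μM copper sulfate for 24 hours and grown 7 days at 30°C on medium lacking adenine and uracil.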

For RTCVIVKMNSTIALYLGQKE, which amyloid nucleation score is on record?
Its amyloid nucleation score is 2.52 ± 0.12.

For MYVFRVLASSVWKSMMLFDL, which amyloid nucleation score is on record?
Its amyloid nucleation score is 0.146 ± 0.23.

For RSEGKNMADS, which amyloid nucleation score is on record?
Its amyloid nucleation score is -0.46 ± 1.1.

For TLQNNLTFPDCLGLRCGSHV, which amyloid nucleation score is on record?
Its amyloid nucleation score is 5.03 ± 0.085.

For ECSRGVVIIWDMHVGGIDEC, which amyloid nucleation score is on record?
Its amyloid nucleation score is 1.79 ± 0.41.

With CSLRYVLHYRYVGLETATNT as the substance, how does the amyloid nucleation score read?
Its amyloid nucleation score is 0.763 ± 0.5.

Which amyloid nucleation score does the source give for TRTNELF here?
The amyloid nucleation score was 0.498 ± 0.33.

For GDIRGQMCMWYLW, which amyloid nucleation score is on record?
Its amyloid nucleation score is -1.73 ± 2.7.

Which amyloid nucleation score does the source give for LSQTKSL here?
The amyloid nucleation score was -0.012 ± 0.77.

Which amyloid nucleation score does the source give for YFIFFLSNVFASSVIILMYM here?
The amyloid nucleation score was -0.071 ± 0.36.

For SLYKMVMCNGYSCLLLYLVC, which amyloid nucleation score is on record?
Its amyloid nucleation score is 0.353 ± 0.97.

For LVIHCDQTHIKVQRDVPRRW, which amyloid nucleation score is on record?
The amyloid nucleation score was 2.98 ± 0.15.

Which amyloid nucleation score does the source give for HSCYLYTSLLIFDMCRYWFL here?
Its amyloid nucleation score is 0.719 ± 0.48.

For SGAPYS, which amyloid nucleation score is on record?
Its amyloid nucleation score is 0.185 ± 0.34.

With FTIIFSTYISMVVVDLRVVP as the substance, how does the amyloid nucleation score read?
The amyloid nucleation score was -0.409 ± 0.36.

Which amyloid nucleation score does the source give for FLILVSLGELGVTAI here?
Its amyloid nucleation score is “inactive”.

For GNVIGGNMVVQWYSFCTVCV, which amyloid nucleation score is on record?
The amyloid nucleation score was 6.342 ± 0.062.

For CVLFAYFNALF, which amyloid nucleation score is on record?
The amyloid nucleation score was 1.3 ± 0.57.

Which amyloid nucleation score does the source give for FSDVQCG here?
Its amyloid nucleation score is “inactive”.

Which amyloid nucleation score does the source give for CFVVYGQTPSTVPRINAVLS here?
Its amyloid nucleation score is 6.46 ± 0.069.

For CRACSHMTKLLIGTFLLLDF, which amyloid nucleation score is on record?
The amyloid nucleation score was -0.325 ± 0.6.

For WSCLSSLRDLGNGGYMM, which amyloid nucleation score is on record?
Its amyloid nucleation score is 0.05 ± 0.62.

With LWVRSKFRSC as the substance, how does the amyloid nucleation score read?
The amyloid nucleation score was -0.08 ± 1.1.

For LMVISYRCDATGRRRVSLD, which amyloid nucleation score is on record?
Its amyloid nucleation score is 0.867 ± 0.25.

Which amyloid nucleation score does the source give for LRIHGSTLRISLW here?
Its amyloid nucleation score is 1.64 ± 0.28.

For HANLGFS, which amyloid nucleation score is on record?
Its amyloid nucleation score is -0.742 ± 0.78.

For QQGPFVCWIQR, which amyloid nucleation score is on record?
Its amyloid nucleation score is -0.583 ± 1.1.

With RFSWMQLWCECVLHY as the substance, how does the amyloid nucleation score read?
Its amyloid nucleation score is -0.162 ± 0.3.

For MINTTMRSDRRNNWLG, which amyloid nucleation score is on record?
Its amyloid nucleation score is 2.94 ± 0.064.

Which amyloid nucleation score does the source give for MSSHVTHAS here?
Its amyloid nucleation score is 0.495 ± 1.

With SSLKVLIPYSCYHFV as the substance, how does the amyloid nucleation score read?
The amyloid nucleation score was 2.76 ± 0.1.

For RDPRAMQLKSRLGMWKNQWY, which amyloid nucleation score is on record?
Its amyloid nucleation score is 0.91 ± 0.78.

With ATVSDF as the substance, how does the amyloid nucleation score read?
The amyloid nucleation score was -0.478 ± 0.36.

Which amyloid nucleation score does the source give for KYWLMSLLAVKPSSRDSYGQ here?
The amyloid nucleation score was -0.239 ± 0.28.

For MYCWY, which amyloid nucleation score is on record?
Its amyloid nucleation score is “inactive”.

Which amyloid nucleation score does the source give for TVLNFKAQYRSSPMLAH here?
Its amyloid nucleation score is 0.862 ± 0.39.

With GGQFHEEFSNEINEVQDCVL as the substance, how does the amyloid nucleation score read?
The amyloid nucleation score was -0.15 ± 0.75.

With INMLTWGWELILSGSSVYED as the substance, how does the amyloid nucleation score read?
Its amyloid nucleation score is -0.151 ± 0.41.

For SIGRLIPYFNQTPFCIS, which amyloid nucleation score is on record?
Its amyloid nucleation score is -0.338 ± 0.23.

For CAIWFRTEWFWTVCTWVSGH, which amyloid nucleation score is on record?
Its amyloid nucleation score is -0.201 ± 0.43.

With SDEGLYPYLHLTFKTSTLWK as the substance, how does the amyloid nucleation score read?
Its amyloid nucleation score is 0.201 ± 0.66.

Which amyloid nucleation score does the source give for RVVLGTGDLVSCRFIFSLEK here?
Its amyloid nucleation score is -1.25 ± 0.44.

Which amyloid nucleation score does the source give for DMKDDRRSFTKGP here?
The amyloid nucleation score was -0.103 ± 0.69.

Which amyloid nucleation score does the source give for QHTTVRFRTGDKRNQFLSSI here?
The amyloid nucleation score was -0.843 ± 1.1.

Which amyloid nucleation score does the source give for FTMLYSVYPSGRPGSQSGR here?
Its amyloid nucleation score is 1.92 ± 0.21.

With LDCAKTVVTGVVLGRQLCQN as the substance, how does the amyloid nucleation score read?
The amyloid nucleation score was 0.662 ± 0.39.

With AFLLEMKTKAATPRCYLRDM as the substance, how does the amyloid nucleation score read?
Its amyloid nucleation score is 0.532 ± 0.85.

With FLFACFMRVAL as the substance, how does the amyloid nucleation score read?
The amyloid nucleation score was 1.46 ± 0.24.

With QISRCILNNPRPCLSF as the substance, how does the amyloid nucleation score read?
Its amyloid nucleation score is 1.01 ± 0.9.

Which amyloid nucleation score does the source give for NSIVWSMC here?
The amyloid nucleation score was 0.409 ± 0.42.

With VFFGVVQLICDGVKEIFPNL as the substance, how does the amyloid nucleation score read?
Its amyloid nucleation score is 4 ± 0.1.

Which amyloid nucleation score does the source give for GGFFALTYVWSHVHRWS here?
Its amyloid nucleation score is “inactive”.

For VMSKSNPIAV, which amyloid nucleation score is on record?
The amyloid nucleation score was 0.24 ± 0.54.

Which amyloid nucleation score does the source give for AWSLTSTHFG here?
Its amyloid nucleation score is 0.249 ± 0.69.

With CGVEA as the substance, how does the amyloid nucleation score read?
The amyloid nucleation score was -0.542 ± 0.76.

For FPWSGAWMD, which amyloid nucleation score is on record?
Its amyloid nucleation score is 0.029 ± 1.

For AILVGMFYAKTVGGQYRVHG, which amyloid nucleation score is on record?
The amyloid nucleation score was 0.369 ± 0.61.

For LMVGVSRGSGWRCGPLGEGA, which amyloid nucleation score is on record?
Its amyloid nucleation score is 0.035 ± 0.37.

Which amyloid nucleation score does the source give for LDNLWYL here?
Its amyloid nucleation score is 0.623 ± 0.88.

Which amyloid nucleation score does the source give for DLLLRSSTSTVVCIMNRTTS here?
Its amyloid nucleation score is 3.94 ± 0.076.

Which amyloid nucleation score does the source give for ILSLIVFNYDYCSKVWNLLG here?
Its amyloid nucleation score is -1.53 ± 0.66.

For GRSFYNCPPLRIHCLCIMEV, which amyloid nucleation score is on record?
The amyloid nucleation score was 0.557 ± 0.68.

Which amyloid nucleation score does the source give for SIPRGFLLVLLVDNPTIRLQ here?
The amyloid nucleation score was -0.358 ± 0.32.

Which amyloid nucleation score does the source give for LTVLACPRYSS here?
The amyloid nucleation score was 0.525 ± 0.87.
